# Measurements as given in IntAct's records for PubMed 25416956.
# B1: Inactive peptidyl-prolyl cis-trans isomerase FKBP6 (Homo sapiens), O75344 (parent)
# chain: MGGSALNQGVLEGDDAPGQSLYERLSQRMLDISGDRGVLKDVIREGAGDLVAPDASVLVKYSGYLEHMDRPFDSNYFRKTPRLMKLGEDITLWGMELGLLSMRRGELARFLFKPNYAYGTLGCPPLIPPNTTVLFEIELLDFLDCAESDKFCALSAEQQDQFPLQKVLKVAATEREFGNYLFRQNRFYDAKVRYKRALLLLRRRSAPPEEQHLVEAAKLPVLLNLSFTYLKLDRPTIALCYGEQALIIDQKNAKALFRCGQACLLLTEYQKARDFLVRAQKEQPFNHDINNELKKLASCYRDYVDKEKEMWHRMFAPCGDGSTAGES
# partner: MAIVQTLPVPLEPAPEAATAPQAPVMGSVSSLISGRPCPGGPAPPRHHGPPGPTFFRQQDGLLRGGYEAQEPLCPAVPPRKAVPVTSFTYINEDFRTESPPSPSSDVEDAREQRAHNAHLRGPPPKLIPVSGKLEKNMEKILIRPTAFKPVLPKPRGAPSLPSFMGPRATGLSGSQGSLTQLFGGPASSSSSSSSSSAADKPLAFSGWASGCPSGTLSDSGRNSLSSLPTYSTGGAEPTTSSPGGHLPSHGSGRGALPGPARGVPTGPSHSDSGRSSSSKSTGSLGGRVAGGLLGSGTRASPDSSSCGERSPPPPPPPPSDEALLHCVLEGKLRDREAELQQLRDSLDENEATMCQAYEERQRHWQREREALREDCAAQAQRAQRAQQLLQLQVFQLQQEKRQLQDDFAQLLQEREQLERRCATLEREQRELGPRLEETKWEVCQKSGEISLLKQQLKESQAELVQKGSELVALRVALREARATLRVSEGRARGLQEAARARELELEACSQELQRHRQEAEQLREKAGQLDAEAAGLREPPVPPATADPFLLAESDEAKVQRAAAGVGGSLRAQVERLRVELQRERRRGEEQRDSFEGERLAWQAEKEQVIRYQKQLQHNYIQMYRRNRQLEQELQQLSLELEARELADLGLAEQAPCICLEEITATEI
# B2: Chorion-specific transcription factor GCMb (Homo sapiens), O75603 (parent)
# chain: MPAAAVQEAVGVCSYGMQLSWDINDPQMPQELALFDQFREWPDGYVRFIYSSDEKKAQRHLSGWAMRNTNNHNGHILKKSCLGVVVCTQACTLPDGSRLQLRPAICDKARLKQQKKACPNCHSALELIPCRGHSGYPVTNFWRLDGNAIFFQAKGVHDHPRPESKSETEARRSAIKRQMASFYQPQKKRIRESEAEENQDSSGHFSNIPPLENPEDFDIVTETSFPIPGQPCPSFPKSDVYKATCDLATFQGDKMPPFQKYSSPRIYLPRPPCSYELANPGYTNSSPYPTLYKDSTSIPNDTDWVHLNTLQCNVNSYSSYERSFDFTNKQHGWKPALGKPSLVERTNHGQFQAMATRPYYNPELPCRYLTTPPPGAPALQTVITTTTKVSYQAYQPPAMKYSDSVREVKSLSSCNYAPEDTGMSVYPEPWGPPVTVTRAASPSGPPPMKIAGDCRAIRPTVAIPHEPVSSRTDEAETWDVCLSGLGSAVSYSDRVGPFFTYNNEDF
# partner: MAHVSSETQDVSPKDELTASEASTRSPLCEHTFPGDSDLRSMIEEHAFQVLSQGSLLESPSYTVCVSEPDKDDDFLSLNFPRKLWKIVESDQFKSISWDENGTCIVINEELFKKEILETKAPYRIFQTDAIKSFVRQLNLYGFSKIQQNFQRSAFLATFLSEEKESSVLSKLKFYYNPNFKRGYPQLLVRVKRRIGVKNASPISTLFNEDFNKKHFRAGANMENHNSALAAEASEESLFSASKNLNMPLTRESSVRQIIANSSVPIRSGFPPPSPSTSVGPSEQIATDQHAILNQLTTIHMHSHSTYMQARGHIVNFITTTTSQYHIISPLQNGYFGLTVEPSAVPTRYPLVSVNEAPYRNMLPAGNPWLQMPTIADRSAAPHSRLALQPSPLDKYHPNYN
# B3: Tumor necrosis factor receptor superfamily member 13B (Homo sapiens), O14836 (parent)
# chain: MSGLGRSRRGGRSRVDQEERFPQGLWTGVAMRSCPEEQYWDPLLGTCMSCKTICNHQSQRTCAAFCRSLSCRKEQGKFYDHLLRDCISCASICGQHPKQCAYFCENKLRSPVNLPPELRRQRSGEVENNSDNSGRYQGLEHRGSEASPALPGLKLSADQVALVYSTLGLCLCAVLCCFLVAVACFLKKRGDPCSCQPRSRPRQSPAKSSQDHAMEAGSPVSTSPEPVETCSFCFPECRAPTQESAVTPGTPDPTCAGRWGCHTRTTVLQPCPHIPDSGLGIVCVPAQEGGPGA
# B4: Inactive peptidyl-prolyl cis-trans isomerase FKBP6 (Homo sapiens), O75344 (parent)
# chain: B1 chain
# partner: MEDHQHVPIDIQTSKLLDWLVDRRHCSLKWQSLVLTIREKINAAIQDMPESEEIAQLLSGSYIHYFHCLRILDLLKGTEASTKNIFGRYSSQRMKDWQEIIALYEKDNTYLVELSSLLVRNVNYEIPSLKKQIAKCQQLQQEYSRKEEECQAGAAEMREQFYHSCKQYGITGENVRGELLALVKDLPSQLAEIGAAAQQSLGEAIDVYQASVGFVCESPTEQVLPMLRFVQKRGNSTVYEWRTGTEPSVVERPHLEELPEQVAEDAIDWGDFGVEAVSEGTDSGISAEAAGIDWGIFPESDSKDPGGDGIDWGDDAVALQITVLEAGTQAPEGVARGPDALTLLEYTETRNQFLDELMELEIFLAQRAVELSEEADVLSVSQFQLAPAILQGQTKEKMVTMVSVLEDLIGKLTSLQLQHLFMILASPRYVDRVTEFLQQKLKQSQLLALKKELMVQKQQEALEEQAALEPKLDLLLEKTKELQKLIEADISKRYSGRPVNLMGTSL
# B5: Inactive peptidyl-prolyl cis-trans isomerase FKBP6 (Homo sapiens), O75344 (parent)
# chain: B1 chain
# partner: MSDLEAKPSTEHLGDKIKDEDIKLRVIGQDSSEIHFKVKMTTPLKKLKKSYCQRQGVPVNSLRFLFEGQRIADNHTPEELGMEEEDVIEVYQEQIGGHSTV
# Variants of: B1
# Conditions: with lzts2_human LZTS2, Q9BRK4
row,Variant,effect of a mutation on the interaction
1,MGGSALNQGVLEGDDAPGQSLYERLSQRMLDISGDRGVLKDVIREGAGDLVAPDASVLVKYSGYLEHMDRPLDSNYFRKTPRLMKLGEDITLWGMELGLLSMRRGELARFLFKPNYAYGTLGCPPLIPPNTTVLFEIELLDFLDCAESDKFCALSAEQQDQFPLQKVLKVAATEREFGNYLFRQNRFYDAKVRYKRALLLLRRRSAPPEEQHLVEAAKLPVLLNLSFTYLKLDRPTIALCYGEQALIIDQKNAKALFRCGQACLLLTEYQKARDFLVRAQKEQPFNHDINNELKKLASCYRDYVDKEKEMWHRMFAPCGDGSTAGES [F72L],disrupting interaction

# Variants of: B2
# Conditions: with hsfy1_human HSFY1, Q96LI6
row,Variant,effect of a mutation on the interaction
1,MPAAAVQEAVGVCSYGMQLSWDINDPQMPQELALFDQFREWPDGYVLFIYSSDEKKAQRHLSGWAMRNTNNHNGHILKKSCLGVVVCTQACTLPDGSRLQLRPAICDKARLKQQKKACPNCHSALELIPCRGHSGYPVTNFWRLDGNAIFFQAKGVHDHPRPESKSETEARRSAIKRQMASFYQPQKKRIRESEAEENQDSSGHFSNIPPLENPEDFDIVTETSFPIPGQPCPSFPKSDVYKATCDLATFQGDKMPPFQKYSSPRIYLPRPPCSYELANPGYTNSSPYPTLYKDSTSIPNDTDWVHLNTLQCNVNSYSSYERSFDFTNKQHGWKPALGKPSLVERTNHGQFQAMATRPYYNPELPCRYLTTPPPGAPALQTVITTTTKVSYQAYQPPAMKYSDSVREVKSLSSCNYAPEDTGMSVYPEPWGPPVTVTRAASPSGPPPMKIAGDCRAIRPTVAIPHEPVSSRTDEAETWDVCLSGLGSAVSYSDRVGPFFTYNNEDF [R47L],disrupting interaction

# Variants of: B2
# Conditions: with hsfy1_human HSFY1, Q96LI6
# Remark: another data set of the same source
row,Variant,effect of a mutation on the interaction
1,MPAAAVQEAVGVCSYGMQLSWDINDPQMPQELALFDQFREWPDGYVRFIYSSDEKKAQRHLSSWAMRNTNNHNGHILKKSCLGVVVCTQACTLPDGSRLQLRPAICDKARLKQQKKACPNCHSALELIPCRGHSGYPVTNFWRLDGNAIFFQAKGVHDHPRPESKSETEARRSAIKRQMASFYQPQKKRIRESEAEENQDSSGHFSNIPPLENPEDFDIVTETSFPIPGQPCPSFPKSDVYKATCDLATFQGDKMPPFQKYSSPRIYLPRPPCSYELANPGYTNSSPYPTLYKDSTSIPNDTDWVHLNTLQCNVNSYSSYERSFDFTNKQHGWKPALGKPSLVERTNHGQFQAMATRPYYNPELPCRYLTTPPPGAPALQTVITTTTKVSYQAYQPPAMKYSDSVREVKSLSSCNYAPEDTGMSVYPEPWGPPVTVTRAASPSGPPPMKIAGDCRAIRPTVAIPHEPVSSRTDEAETWDVCLSGLGSAVSYSDRVGPFFTYNNEDF [G63S],disrupting interaction

# Variants of: B3
# Conditions: with sgta_human SGTA
row,Variant,effect of a mutation on the interaction
1,MSGLGRSRRGGRSRVDQEERFPQGLWTGVAMRSCPEEQYWDPLLGTCMSCKTICNHQSQRTCAAFCRSLSCRKEQGKFYDHLLRDCISCASICGQHPKQCAYFCENKLRSPVNLPPELRRQRSGRVENNSDNSGRYQGLEHRGSEASPALPGLKLSADQVALVYSTLGLCLCAVLCCFLVAVACFLKKRGDPCSCQPRSRPRQSPAKSSQDHAMEAGSPVSTSPEPVETCSFCFPECRAPTQESAVTPGTPDPTCAGRWGCHTRTTVLQPCPHIPDSGLGIVCVPAQEGGPGA [E125R],disrupting interaction

# Variants of: B4
# Conditions: with ck5p3_human CDK5RAP3, Q96JB5
row,Variant,effect of a mutation on the interaction
1,MGGSALNQGVLEGDDAPGQSLYERLSQRMLDISGDRGVLKDVIREGAGDLVAPDASVLVKYSGYLEHMDRPLDSNYFRKTPRLMKLGEDITLWGMELGLLSMRRGELARFLFKPNYAYGTLGCPPLIPPNTTVLFEIELLDFLDCAESDKFCALSAEQQDQFPLQKVLKVAATEREFGNYLFRQNRFYDAKVRYKRALLLLRRRSAPPEEQHLVEAAKLPVLLNLSFTYLKLDRPTIALCYGEQALIIDQKNAKALFRCGQACLLLTEYQKARDFLVRAQKEQPFNHDINNELKKLASCYRDYVDKEKEMWHRMFAPCGDGSTAGES [F72L],disrupting interaction

# Variants of: B5
# Conditions: with sumo5_human SUMO1P1, G2XKQ0
row,Variant,effect of a mutation on the interaction
1,MGGSALNQGVLEGDDAPGQSLYERLSQRMLDISGDRGVLKDVIREGAGDLVAPDASVLVKYSGYLEHMDRPLDSNYFRKTPRLMKLGEDITLWGMELGLLSMRRGELARFLFKPNYAYGTLGCPPLIPPNTTVLFEIELLDFLDCAESDKFCALSAEQQDQFPLQKVLKVAATEREFGNYLFRQNRFYDAKVRYKRALLLLRRRSAPPEEQHLVEAAKLPVLLNLSFTYLKLDRPTIALCYGEQALIIDQKNAKALFRCGQACLLLTEYQKARDFLVRAQKEQPFNHDINNELKKLASCYRDYVDKEKEMWHRMFAPCGDGSTAGES [F72L],disrupting interaction
